Assay results from patent US20260176314.

T1: FLAG_SERPINB14_HiBiT
T1 chain: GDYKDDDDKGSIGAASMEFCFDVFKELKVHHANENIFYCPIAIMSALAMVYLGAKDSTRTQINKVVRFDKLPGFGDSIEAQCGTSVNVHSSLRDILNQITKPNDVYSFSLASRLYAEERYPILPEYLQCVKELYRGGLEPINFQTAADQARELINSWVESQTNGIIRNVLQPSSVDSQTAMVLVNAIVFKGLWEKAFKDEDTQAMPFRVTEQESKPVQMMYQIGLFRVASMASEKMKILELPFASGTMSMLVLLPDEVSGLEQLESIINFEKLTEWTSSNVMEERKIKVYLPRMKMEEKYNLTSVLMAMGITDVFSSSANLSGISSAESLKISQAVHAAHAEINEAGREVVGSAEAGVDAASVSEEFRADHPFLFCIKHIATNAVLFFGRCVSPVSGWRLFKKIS

B1: Fam20c(M1-R584)_MYC (protein)
chain: MKMMLVRRFRVLILMVFLVACALHIALDLLPRLERRGARPSGEPGCSCAQPAAEVAAPGWAQVRGRPGEPPAASSAAGDAGWPNKHTLRILQDFSSDPSSNLSSHSLEKLPPAAEPAERALRGRDPGALRPHDPAHRPLLRDPGPRRSESPPGPGGDASLLARLFEHPLYRVAVPPLTEEDVLFNVNSDTRLSPKAAENPDWPHAGAEGAEFLSPGEAAVDSYPNWLKFHIGINRYELYSRHNPAIEALLHDLSSQRITSVAMKSGGTQLKLIMTFQNYGQALFKPMKQTREQETPPDFFYFSDYERHNAEIAAFHLDRILDFRRVPPVAGRMVNMTKEIRDVTRDKKLWRTFFISPANNICFYGECSYYCSTEHALCGKPDQIEGSLAAFLPDLSLAKRKTWRNPWRRSYHKRKKAEWEVDPDYCEEVKQTPPYDSSHRILDVMDMTIFDFLMGNMDRHHYETFEKFGNETFIIHLDNGRGFGKYSHDELSILVPLQQCCRIRKSTYLRLQLLAKEEYKLSLLMAESLRGDQVAPVLYQPHLEALDRRLRVVLKAVRDCVERNGLHSVVDDDLDTEHRAASAREQKLISEEDL
B2: ScKRE2(M1-S80)_Fam20c(D93-R584)_FLAG (protein)
chain: MALFLSKRLLRFTVIAGAVIVLLLTLNSNSRTQQYIPSSISAAFDFTSGSISPEQQVISEENDAKKLEQSALNSEASEDSDFSSDPSSNLSSHSLEKLPPAAEPAERALRGRDPGALRPHDPAHRPLLRDPGPRRSESPPGPGGDASLLARLFEHPLYRVAVPPLTEEDVLFNVNSDTRLSPKAAENPDWPHAGAEGAEFLSPGEAAVDSYPNWLKFHIGINRYELYSRHNPAIEALLHDLSSQRITSVAMKSGGTQLKLIMTFQNYGQALFKPMKQTREQETPPDFFYFSDYERHNAEIAAFHLDRILDFRRVPPVAGRMVNMTKEIRDVTRDKKLWRTFFISPANNICFYGECSYYCSTEHALCGKPDQIEGSLAAFLPDLSLAKRKTWRNPWRRSYHKRKKAEWEVDPDYCEEVKQTPPYDSSHRILDVMDMTIFDFLMGNMDRHHYETFEKFGNETFIIHLDNGRGFGKYSHDELSILVPLQQCCRIRKSTYLRLQLLAKEEYKLSLLMAESLRGDQVAPVLYQPHLEALDRRLRVVLKAVRDCVERNGLHSVVDDDLDTEHRAASARDYKDDDDK
B3: ScMNN2(M1-S36)_Fam20c(R32-R584)_FLAG (protein)
chain: MLLTKRFSKLFKLTFIVLILCGLFVITNKYMDENTSRLERRGARPSGEPGCSCAQPAAEVAAPGWAQVRGRPGEPPAASSAAGDAGWPNKHTLRILQDFSSDPSSNLSSHSLEKLPPAAEPAERALRGRDPGALRPHDPAHRPLLRDPGPRRSESPPGPGGDASLLARLFEHPLYRVAVPPLTEEDVLFNVNSDTRLSPKAAENPDWPHAGAEGAEFLSPGEAAVDSYPNWLKFHIGINRYELYSRHNPAIEALLHDLSSQRITSVAMKSGGTQLKLIMTFQNYGQALFKPMKQTREQETPPDFFYFSDYERHNAEIAAFHLDRILDFRRVPPVAGRMVNMTKEIRDVTRDKKLWRTFFISPANNICFYGECSYYCSTEHALCGKPDQIEGSLAAFLPDLSLAKRKTWRNPWRRSYHKRKKAEWEVDPDYCEEVKQTPPYDSSHRILDVMDMTIFDFLMGNMDRHHYETFEKFGNETFIIHLDNGRGFGKYSHDELSILVPLQQCCRIRKSTYLRLQLLAKEEYKLSLLMAESLRGDQVAPVLYQPHLEALDRRLRVVLKAVRDCVERNGLHSVVDDDLDTEHRAASARDYKDDDDK
B4: ScMNN6(M1-P30)_Fam20c(R32-R584)_FLAG (protein)
chain: RLERRGARPSGEPGCSCAQPAAEVAAPGWAQVRGRPGEPPAASSAAGDAGWPNKHTLRILQDFSSDPSSNLSSHSLEKLPPAAEPAERALRGRDPGALRPHDPAHRPLLRDPGPRRSESPPGPGGDASLLARLFEHPLYRVAVPPLTEEDVLFNVNSDTRLSPKAAENPDWPHAGAEGAEFLSPGEAAVDSYPNWLKFHIGINRYELYSRHNPAIEALLHDLSSQRITSVAMKSGGTQLKLIMTFQNYGQALFKPMKQTREQETPPDFFYFSDYERHNAEIAAFHLDRILDFRRVPPVAGRMVNMTKEIRDVTRDKKLWRTFFISPANNICFYGECSYYCSTEHALCGKPDQIEGSLAAFLPDLSLAKRKTWRNPWRRSYHKRKKAEWEVDPDYCEEVKQTPPYDSSHRILDVMDMTIFDFLMGNMDRHHYETFEKFGNETFIIHLDNGRGFGKYSHDELSILVPLQQCCRIRKSTYLRLQLLAKEEYKLSLLMAESLRGDQVAPVLYQPHLEALDRRLRVVLKAVRDCVERNGLHSVVDDDLDTEHRAASARDYKDDDDK
B5: ScMNN2(M1-S150)_Fam20c(R32-R584)_FLAG (protein)
chain: MLLTKRFSKLFKLTFIVLILCGLFVITNKYMDENTSVKEYKEYLDRYVQSYSNKYSSSSDAASADDSTPLRDNDEAGNEKLKSFYNNVFNFLMVDSPKGSTAKQYNEACLLKGDIGDRPDHYKDLYKLSAKELSKCLELSPDEVASLTKSRLERRGARPSGEPGCSCAQPAAEVAAPGWAQVRGRPGEPPAASSAAGDAGWPNKHTLRILQDFSSDPSSNLSSHSLEKLPPAAEPAERALRGRDPGALRPHDPAHRPLLRDPGPRRSESPPGPGGDASLLARLFEHPLYRVAVPPLTEEDVLFNVNSDTRLSPKAAENPDWPHAGAEGAEFLSPGEAAVDSYPNWLKFHIGINRYELYSRHNPAIEALLHDLSSQRITSVAMKSGGTQLKLIMTFQNYGQALFKPMKQTREQETPPDFFYFSDYERHNAEIAAFHLDRILDFRRVPPVAGRMVNMTKEIRDVTRDKKLWRTFFISPANNICFYGECSYYCSTEHALCGKPDQIEGSLAAFLPDLSLAKRKTWRNPWRRSYHKRKKAEWEVDPDYCEEVKQTPPYDSSHRILDVMDMTIFDFLMGNMDRHHYETFEKFGNETFIIHLDNGRGFGKYSHDELSILVPLQQCCRIRKSTYLRLQLLAKEEYKLSLLMAESLRGDQVAPVLYQPHLEALDRRLRVVLKAVRDCVERNGLHSVVDDDLDTEHRAASARDYKDDDDK
B6: ScKRE(M1-I58)_Fam20c(R32-R584)_FLAG (protein)
chain: MALFLSKRLLRFTVIAGAVIVLLLTLNSNSRTQQYIPSSISAAFDFTSGSISPEQQVIRLERRGARPSGEPGCSCAQPAAEVAAPGWAQVRGRPGEPPAASSAAGDAGWPNKHTLRILQDFSSDPSSNLSSHSLEKLPPAAEPAERALRGRDPGALRPHDPAHRPLLRDPGPRRSESPPGPGGDASLLARLFEHPLYRVAVPPLTEEDVLFNVNSDTRLSPKAAENPDWPHAGAEGAEFLSPGEAAVDSYPNWLKFHIGINRYELYSRHNPAIEALLHDLSSQRITSVAMKSGGTQLKLIMTFQNYGQALFKPMKQTREQETPPDFFYFSDYERHNAEIAAFHLDRILDFRRVPPVAGRMVNMTKEIRDVTRDKKLWRTFFISPANNICFYGECSYYCSTEHALCGKPDQIEGSLAAFLPDLSLAKRKTWRNPWRRSYHKRKKAEWEVDPDYCEEVKQTPPYDSSHRILDVMDMTIFDFLMGNMDRHHYETFEKFGNETFIIHLDNGRGFGKYSHDELSILVPLQQCCRIRKSTYLRLQLLAKEEYKLSLLMAESLRGDQVAPVLYQPHLEALDRRLRVVLKAVRDCVERNGLHSVVDDDLDTEHRAASARDYKDDDDK
B7: ScMNN1(M1-A42)_Fam20c(D93-R584)_FLAG (protein)
chain: MLALRRFILNQRSLRSCTIPILVGALIIILVLFQLVTHRNDADFSSDPSSNLSSHSLEKLPPAAEPAERALRGRDPGALRPHDPAHRPLLRDPGPRRSESPPGPGGDASLLARLFEHPLYRVAVPPLTEEDVLFNVNSDTRLSPKAAENPDWPHAGAEGAEFLSPGEAAVDSYPNWLKFHIGINRYELYSRHNPAIEALLHDLSSQRITSVAMKSGGTQLKLIMTFQNYGQALFKPMKQTREQETPPDFFYFSDYERHNAEIAAFHLDRILDFRRVPPVAGRMVNMTKEIRDVTRDKKLWRTFFISPANNICFYGECSYYCSTEHALCGKPDQIEGSLAAFLPDLSLAKRKTWRNPWRRSYHKRKKAEWEVDPDYCEEVKQTPPYDSSHRILDVMDMTIFDFLMGNMDRHHYETFEKFGNETFIIHLDNGRGFGKYSHDELSILVPLQQCCRIRKSTYLRLQLLAKEEYKLSLLMAESLRGDQVAPVLYQPHLEALDRRLRVVLKAVRDCVERNGLHSVVDDDLDTEHRAASARDYKDDDDK
B8: ScMNN2(M1-P97)_Fam20c(R32-R584)_FLAG (protein)
chain: MLLTKRFSKLFKLTFIVLILCGLFVITNKYMDENTSVKEYKEYLDRYVQSYSNKYSSSSDAASADDSTPLRDNDEAGNEKLKSFYNNVFNFLMVDSPRLERRGARPSGEPGCSCAQPAAEVAAPGWAQVRGRPGEPPAASSAAGDAGWPNKHTLRILQDFSSDPSSNLSSHSLEKLPPAAEPAERALRGRDPGALRPHDPAHRPLLRDPGPRRSESPPGPGGDASLLARLFEHPLYRVAVPPLTEEDVLFNVNSDTRLSPKAAENPDWPHAGAEGAEFLSPGEAAVDSYPNWLKFHIGINRYELYSRHNPAIEALLHDLSSQRITSVAMKSGGTQLKLIMTFQNYGQALFKPMKQTREQETPPDFFYFSDYERHNAEIAAFHLDRILDFRRVPPVAGRMVNMTKEIRDVTRDKKLWRTFFISPANNICFYGECSYYCSTEHALCGKPDQIEGSLAAFLPDLSLAKRKTWRNPWRRSYHKRKKAEWEVDPDYCEEVKQTPPYDSSHRILDVMDMTIFDFLMGNMDRHHYETFEKFGNETFIIHLDNGRGFGKYSHDELSILVPLQQCCRIRKSTYLRLQLLAKEEYKLSLLMAESLRGDQVAPVLYQPHLEALDRRLRVVLKAVRDCVERNGLHSVVDDDLDTEHRAASARDYKDDDDK

Target: T1, FLAG_SERPINB14_HiBiT
For B1, the “phosphorylation sites detected by LC-MS/MS after co-expression in Pichia pastoris” value was “S69, T76, T92, S99, S165, T202, S206, and S345”.

Each protein was assayed against FLAG_TRX_SPP1 (G158-N314)_HiBiT.
Chain of FLAG_TRX_SPP1 (G158-N314)_HiBiT (chain, as listed by the source): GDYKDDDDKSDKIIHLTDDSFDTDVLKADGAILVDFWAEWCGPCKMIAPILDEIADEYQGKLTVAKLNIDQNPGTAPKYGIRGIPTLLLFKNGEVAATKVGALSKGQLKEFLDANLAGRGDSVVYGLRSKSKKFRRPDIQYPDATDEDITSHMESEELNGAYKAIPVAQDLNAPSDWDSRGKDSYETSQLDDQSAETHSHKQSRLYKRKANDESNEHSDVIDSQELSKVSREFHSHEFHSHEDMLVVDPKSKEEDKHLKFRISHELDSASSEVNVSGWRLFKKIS
With B1 the “Phosphorylation” value was “Yes”.
B2 was tested, and the “Phosphorylation” value was “Yes”.
For B3, the “Phosphorylation” value was “Yes”.
For B4, the “Phosphorylation” value was “Yes”.
With B5 the “Phosphorylation” value was “Yes”.
For B6, the “Phosphorylation” value was “Yes”.
For B7, the “Phosphorylation” value was “Yes”.
In the case of B8, the “Phosphorylation” value is reported as “Yes”.
